Results on 167 variants are retold here after the RNAGym collection of RNA variant scans (doi:10.1093/nar/gkz1192).

B1: CPEB3 Ribozyme (parent)
chain: UAACAGGGGGCCACAGCAGAAGCGUUCACGUCGCAGCCCCUGUCAGAUUCUGGUGAAUCUGCGAAUUCUGCUGUAUAUCUC

This data set covers variants of B1. As to the kind of experiment: self-cleavage, relative activity (ratio to wild type); higher = more cleavage; in vitro, sequencing. In a few lines: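 After error-prone PCR and barcoding, CPEB3 ribozyme mutant libraries were transcribed with T7 RNA polymerase at 37°C for 5 hours, then given 15 min with DNase I before an EDTA stop, and they cleaved during both steps. Reverse transcription with template switching preceded Illumina sequencing. Relative activity divides a variant's cleaved/total read fraction by the unmutated ribozyme's. At least 5 reads were required per variant, and three batches were averaged.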
For the variant U48C C68G, the self-cleavage was 0.18. Under U48G U67A stands 0.38; under U48A U51C, 0.44; under U48C U60A, 0.26. Under U48C U60C stands 0.26. Next, U48C U60G: 0.33; A47G G73A: 1.21; A47G G73U: 1.26. For G46U U76C, the self-cleavage is 0.38. Under A47U U80G stands 0.8.

Regarding A47U U80C, the self-cleavage is 0.66. Next, A47U U80A: 0.51. With U49A A56G, the self-cleavage was 0.59. Turning to U49A A56U, the self-cleavage worked out at 1.19. Under A47U U51A stands 0.4; under A47U U51C, 0.43; under A47U U51G, 0.47. Under U48C A65U stands 0.27; under U48C A65C, 0.21.

Regarding U48C A65G, the self-cleavage is 0.27. Take U48C A56C: the self-cleavage came out at 0.33. Under U48C A56G stands 0.38.

On to U48C A56U, for which the self-cleavage worked out at 0.38. Consider U48G U72A, for which the self-cleavage amounted to 0.44. Under U48G U72C stands 0.44. Under U48C G63U stands 0.57; under U48C G63C, 0.47. Under U48C G63A stands 0.64.

Take U48A U54C: the self-cleavage was found to be 0.39. Take U48A U54A: the self-cleavage stood at 0.43. As to A47G U54A, the self-cleavage amounted to 1.08. Next, A47G U54C: 1.01; U48C G53A: 0.69; A47G G53A: 1.18.

A47G G53C: the self-cleavage was 1.19. Next, A47C C62U: 0.18.

As for U48G A64U, the self-cleavage was found to be 0.17. As to U48G A64G, the self-cleavage was 0.45. Under A47G C81U stands 1.04. Next, U48G U76A: 0.43; A47C U69C: 0.25; U48G A65G: 0.23.

For U48A U72A, the self-cleavage was 0.22. Under U48A U72C stands 0.45. Next, U48A U72G: 0.58; A47U C79U: 0.52.

Consider U48C U58G, for which the self-cleavage was 0.25.

As for U48C U58A, the self-cleavage was determined as 0.23. Next, U48C U58C: 0.34; U48A A77G: 0.54; U48G U49C: 0.46.

Consider U48G U49A, for which the self-cleavage is 0.52. Next, U48A U76C: 0.67. Under U48A U76A stands 0.5; under A47G U67G, 0.34.

Regarding A47G U67A, the self-cleavage was found to be 0.49. Under A47G U67C stands 0.35; under G46U U80C, 0.3; under A47G U74A, 1.21. Regarding A47G U74G, the self-cleavage was found to be 1.24. Next, A47G U74C: 1.13. Under A47C G55U stands 0.16; under U48C U78C, 0.54; under U48C U78G, 0.94. On to U48C U78A, for which the self-cleavage is 0.86. Under U48G A57C stands 1.11.

For U48G A57U, the self-cleavage was determined as 1.07. For the variant U48G A57G, the self-cleavage was 0.4. Regarding U48G G53C, the self-cleavage was 0.55.

In the case of U48C G52A, the self-cleavage stood at 0.87. Under U48C G52C stands 0.42; under U48C G52U, 0.84; under U48G U54C, 0.19. As for A47G C62U, the self-cleavage was 0.3. Next, A47G C62A: 0.33; U48C U74C: 1.02; U48C U74A: 0.88. Under U48C U74G stands 1.02. Next, A47C U76A: 0.48; U48C U67A: 0.3. Turning to U48C U67C, the self-cleavage turned out to be 0.3. For A47C A64G, the self-cleavage is 0.26.

Turning to A47C A64U, the self-cleavage was found to be 0.45. Next, A47G U48C: 0.31. Take A47G U48G: the self-cleavage amounted to 0.26. As to A47G U48A, the self-cleavage is 0.23. Under U48G U60G stands 0.22. Under U48A U80A stands 0.87; under U48A U80C, 0.57. Next, U48A A65U: 0.15; U48A A65G: 0.4; A47G A64G: 0.9. On to A47G A64U, for which the self-cleavage came to 0.34. With A47G G52A, the self-cleavage is 1.25.

On to U48A A56U, for which the self-cleavage turned out to be 0.31. In the case of U48A A56G, the self-cleavage worked out at 0.33. As for U48A A56C, the self-cleavage came out at 0.26. Under A47U A56G stands 0.35. Under A47U A56U stands 0.33; under A47G U78C, 0.93. Under A47G U78A stands 1.07; under A47G U78G, 0.79. With U48A C71A, the self-cleavage turned out to be 0.2. For A47G G61C, the self-cleavage amounted to 0.35. A47G G61A: the self-cleavage was 0.61. Under A47G G61U stands 0.49; under A47G U58G, 0.29.

For A47G U58C, the self-cleavage came out at 1.1. A47G U58A: the self-cleavage amounted to 0.57. Under U49A stands 0.71. Next, A47C C71U: 0.13. Under A47U U67A stands 0.33; under A47U U67C, 0.3. Take A47U A77G: the self-cleavage was found to be 0.37. Next, A47U A77U: 0.71; U48A U67C: 0.25; U48C A57C: 0.5. Regarding U48C A57U, the self-cleavage was 0.58. Under U48C A57G stands 1.11. A47U U78C: the self-cleavage was 0.57. Turning to A47U U78A, the self-cleavage is 0.7. Next, U48G U51C: 0.53; U49A A64U: 0.25; U49A A64G: 0.51. As for A47C G63A, the self-cleavage turned out to be 0.56.

For the variant A47G U69A, the self-cleavage is 0.6.

For A47G U69G, the self-cleavage came to 0.68. Next, A47G U69C: 0.57. Next, A47G U66C: 0.35; A47G U66A: 0.45. Next, A47G U66G: 0.27; A47G G63A: 0.88.

For A47G G63C, the self-cleavage is 0.93. As to U48C C71U, the self-cleavage stood at 0.32. Under U48C C71A stands 0.49. Next, A47C G73A: 0.85; U49A A75G: 0.39. Under U49A A75U stands 0.64; under A47C U67C, 0.12. Consider A47C U67A, for which the self-cleavage was 0.23.

As to U48C A77C, the self-cleavage came out at 0.61. As for U48C A77U, the self-cleavage stood at 0.65.

As to U48C A77G, the self-cleavage was determined as 0.6. Under A47G C79U stands 1.12; under U48G A56G, 0.28.

On to A47C U60A, for which the self-cleavage came out at 0.15. As to U48C C81U, the self-cleavage came out at 1. Under A47U U66C stands 0.36. Under A47U U66A stands 0.26. Under U48A U78A stands 0.42; under U48A U78C, 0.35. Take A47C A75U: the self-cleavage was 0.3.

With A47U A75G, the self-cleavage turned out to be 0.38.

For A47U A75U, the self-cleavage turned out to be 1. Next, A47U A65U: 0.16; A47U A65G: 0.35. Under U48A C62U stands 0.43; under A47U U58C, 0.39. Under A47C U51A stands 0.33; under A47G C50U, 0.8; under A47G C50A, 0.59. Consider U48A U60A, for which the self-cleavage was 0.31. Next, U48A U60C: 0.14.

On to U48A U60G, for which the self-cleavage is 0.19. Next, A47C: 0.4; A47G: 1.01. Next, A47U: 0.62.
